{"source": "patent US5773647A", "about": "“Compounds and compositions for delivering active agents” (Emisphere Technologies, Inc., priority 1997, dated 1998)", "key": {"[1]": {"conditions": "rat, in vivo, 50 mg/kg", "experimental": "(§1) An intracolonic dosing composition containing 50 mg/kg of carrier 9 and 250 μg/kg of interferon in 50% propylene glycol was prepared. Rats were administered the dosing composition by intracolonic instillation.\n(§2) Rats were administered, orally and by intracolonic instillation, dosing solutions of 1 mg/kg of interferon and no carrier."}, "[2]": {"experiment": "In vivo interferon delivery (ELISA for human interferon)", "conditions": "1 mg/kg interferon, no carrier", "experimental": "as §1, §2"}}, "note": "Like-named read-outs stand apart in the source and are kept apart here."}
{"compound": "O=C(O)CCCc1ccc(NC(=O)COc2ccccc2)cc1", "note": "[Compound 9]", "values": [{"measurement": "Mean peak serum interferon concentration", "setting": "[1]", "value": "2611±695"}]}
{"compound": "interferon", "values": [{"measurement": "Mean peak serum interferon concentration", "setting": "[2]; intracolonic (IC)", "value": "79±100"}, {"measurement": "Mean peak serum interferon concentration", "setting": "[2]; oral (PO)", "value": "1951±1857"}]}
